The values below come from patent US20250277199, “NOVEL CRISPR-CAS NUCLEASES FROM METAGENOMES” (Brain Biotech AG, published 2025).

Bounds are passed on as bounds.

This data set deals with T1, BMC12 (uncultured bacterium (metagenome)).
T1 chain: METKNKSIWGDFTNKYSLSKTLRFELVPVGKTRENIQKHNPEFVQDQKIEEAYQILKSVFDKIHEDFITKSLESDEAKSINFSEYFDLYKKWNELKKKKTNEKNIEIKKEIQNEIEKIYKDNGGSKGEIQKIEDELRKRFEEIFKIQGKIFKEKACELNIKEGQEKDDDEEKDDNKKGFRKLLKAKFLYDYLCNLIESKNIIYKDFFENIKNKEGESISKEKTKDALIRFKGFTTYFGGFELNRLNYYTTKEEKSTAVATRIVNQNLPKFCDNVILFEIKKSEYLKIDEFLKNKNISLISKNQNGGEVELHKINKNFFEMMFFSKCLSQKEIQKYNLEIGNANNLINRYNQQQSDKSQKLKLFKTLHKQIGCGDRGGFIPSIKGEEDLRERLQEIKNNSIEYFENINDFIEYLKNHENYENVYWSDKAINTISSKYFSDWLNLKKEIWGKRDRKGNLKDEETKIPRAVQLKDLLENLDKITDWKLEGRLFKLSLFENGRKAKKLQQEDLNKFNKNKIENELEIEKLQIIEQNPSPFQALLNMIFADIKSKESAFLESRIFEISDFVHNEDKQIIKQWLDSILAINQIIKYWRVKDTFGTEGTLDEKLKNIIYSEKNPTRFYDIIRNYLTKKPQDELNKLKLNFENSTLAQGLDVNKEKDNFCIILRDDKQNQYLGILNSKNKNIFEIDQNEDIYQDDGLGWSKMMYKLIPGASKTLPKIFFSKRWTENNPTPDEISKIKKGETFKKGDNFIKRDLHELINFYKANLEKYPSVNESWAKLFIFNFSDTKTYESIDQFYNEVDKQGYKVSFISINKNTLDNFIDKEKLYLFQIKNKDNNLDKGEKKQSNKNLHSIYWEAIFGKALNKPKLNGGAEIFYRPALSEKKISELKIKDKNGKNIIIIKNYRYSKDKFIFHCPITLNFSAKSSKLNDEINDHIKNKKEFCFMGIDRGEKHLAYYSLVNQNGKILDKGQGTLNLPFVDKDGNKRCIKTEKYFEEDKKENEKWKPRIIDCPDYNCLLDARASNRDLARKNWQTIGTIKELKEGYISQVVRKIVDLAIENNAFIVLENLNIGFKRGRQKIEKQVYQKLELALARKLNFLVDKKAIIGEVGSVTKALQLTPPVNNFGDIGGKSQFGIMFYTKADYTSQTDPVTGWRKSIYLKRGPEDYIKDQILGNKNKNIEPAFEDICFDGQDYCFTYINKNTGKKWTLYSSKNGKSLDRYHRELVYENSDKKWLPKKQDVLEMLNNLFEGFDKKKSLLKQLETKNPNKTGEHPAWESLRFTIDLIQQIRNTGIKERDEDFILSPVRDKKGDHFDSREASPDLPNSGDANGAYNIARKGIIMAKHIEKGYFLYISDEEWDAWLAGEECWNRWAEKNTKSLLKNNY
Briefly: cell_activity; PAM not stated; E. coli depletion, 30 C. The gist of the method:
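E. coli carrying arabinose-induced (0.2%) BMC nuclease, grown at 30° C., made electrocompetent and electroporated with 50-100 ng plasmid carrying gRNA against malQ. Transformants plated on selective M9-glucose agar with kanamycin/ampicillin (± nourseothricin), and growth scored after 48 h at 30° C.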

B1: malQ gRNA (BMC stem-loop + 24 nt spacer) ; malQ protospacer (ssRNA ; dsDNA)
RNA: GAUUUCUACUAUUGUAGAUGUGGCGGUACGUUGAUGCAUCGCG
DNA 1: GTGGCGGTACGTTGATGCATCGCG
DNA 2: CGCGATGCATCAACGTACCGCCAC
With B1, the activity was above 99.9 % colony reduction.
